Laboratory results reported in the RNAGym collection of RNA variant scans (doi:10.1093/molbev/msab373).

B1: Azoarcus group I ribozyme (parent)
chain: GUGCCUUGCGCCGGGAAACCACGCAAGGGAUGGUGUCAAAUUCGGCGAAACCUAAGCGCCCGCCCGGGCGUAUGGCAACGCCGAGCCAAGCUUCGGCGCCUGCGCCGAUGAAGGUGUAGAGACUAGACGGCACCCACCUAAGGCAAACGCUAUGGUGAAGGCAUAGUCCAGGGAGUGGCGAAAGUCACACAAACCGG

Variants of: B1
Experiment: reverse-splicing fitness (ratio to wild type); higher = more active; in vitro selection; Mg2+ level not given
Summary of the method: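 An in vitro group I ribozyme library with randomized positions was T7-transcribed and gel-purified. In triplicate, 10 pmol RNA in EPPS pH 7.5 was reacted with 50 pmoles of a 30-nt RNA substrate for 1 h at 37 °C across several added MgCl2 levels (1–48 mM), then stopped with EDTA. Products were reverse transcribed from a substrate-complementary primer, PCR-amplified and sequenced (HiSeq 4000). Fitness is a variant's read proportion after selection over that before, normalised to wild type.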

| Variant | reverse-splicing fitness |
| --- | --- |
| GUGCCUUGCGCCGGGAAACCACGCAAGGGAUGGUGUCAAAUUCGGCGAAACCUAAGCGCCCGCCCGGGCGUAUGGCAACGCUGAGCCAAGCUUCGGCGCCUGCGCCGAUGUAGGUGUAGAGACUAGACGGCACCCACCUAAGGCCAACGGUAUGGUGAAGGCAUAGUCCAGGGAGUGGCGAAAGUCACACAAACCGG [C82U A111U A145C C150G] | 0.0299 |
| GUGCCUUGCGCCGGGAAACCACGCAAGGGAUGGUGUCAAAUUCGGCGAAACCUAAGCGCCCGCCCGGGCGUAUGGCAACGCUGAGCCAAGCUUCGGCGCCUGCGCCGAUGUAGGUGUAGAGACUAGACGGCACCCACCUAAGGCCAACGAUAUGGUGAAGGCAUAGUCCAGGGAGUGGCGAAAGUCACACAAACCGG [C82U A111U A145C C150A] | 0.0151 |
| GUGCCUUGCGCCGGGAAACCACGCAAGGGAUGGUGUCAAAUUCGGCGAAACCUAAGCGCCCGCCCGGGCGUAUGGCAACGCUGAGCCAAGCUUCGGCGCCUGCGCCGAUGUAGGUGUAGAGACUAGACGGCACCCACCUAAGGCCAACGAUAUGGUGAAGGCAUAGUCGAGGGAGCGGCGAAAGUCACACAAACCGG [C82U A111U A145C C150A C169G U176C] | 0.0138 |
| GUGCCUUGCGCCGGGAAACCACGCAAGGGAUGGUGUCAAAUUCGGCGAAACCUAAGCGCCCGCCCGGGCGUAUGGCAACGCUGAGCCAAGCUUCGGCGCCUGCGCCGAUGUAGGUGUAGAGACUAGACGGCACCCACCUAAGGCCAACGAUAUGGUGAAGGCAUAGUCGAGGGAGAGGCGAAAGUCACACAAACCGG [C82U A111U A145C C150A C169G U176A] | 0.0228 |
| GUGCCUUGCGCCGGGAAACCACGCAAGGGAUGGUGUCAAAUUCGGCGAAACCUAAGCGCCCGCCCGGGCGUAUGGCAACGCUGAGCCAAGCUUCGGCGCCUGCGCCGAUGUAGGUGUAGAGACUAGACGGCACCCACCUAAGGCCAACGAUAUGGUGAAGGCAUAGUCGAGGGAGGGGCGAAAGUCACACAAACCGG [C82U A111U A145C C150A C169G U176G] | 0.00573 |
| GUGCCUUGCGCCGGGAAACCACGCAAGGGAUGGUGUCAAAUUCGGCGAAACCUAAGCGCCCGCCCGGGCGUAUGGCAACGCUGAGCCAAGCUUCGGCGCCUGCGCCGAUGUAGGUGUAGAGACUAGACGGCACCCACCUAAGGCCAACGAUAUGGUGAAGGCAUAGUCAAGGGAGAGGCGAAAGUCACACAAACCGG [C82U A111U A145C C150A C169A U176A] | 0.00998 |
| GUGCCUUGCGCCGGGAAACCACGCAAGGGAUGGUGUCAAAUUCGGCGAAACCUAAGCGCCCGCCCGGGCGUAUGGCAACGCUGAGCCAAGCUUCGGCGCCUGCGCCGAUGUAGGUGUAGAGACUAGACGGCACCCACCUAAGGCCAACGAUAUGGUGAAGGCAUAGUCAAGGGAGCGGCGAAAGUCACACAAACCGG [C82U A111U A145C C150A C169A U176C] | 0.00618 |
| GUGCCUUGCGCCGGGAAACCACGCAAGGGAUGGUGUCAAAUUCGGCGAAACCUAAGCGCCCGCCCGGGCGUAUGGCAACGCUGAGCCAAGCUUCGGCGCCUGCGCCGAUGUAGGUGUAGAGACUAGACGGCACCCACCUAAGGCCAACGAUAUGGUGAAGGCAUAGUCAAGGGAGGGGCGAAAGUCACACAAACCGG [C82U A111U A145C C150A C169A U176G] | 0.00585 |
| GUGCCUUGCGCCGGGAAACCACGCAAGGGAUGGUGUCAAAUUCGGCGAAACCUAAGCGCCCGCCCGGGCGUAUGGCAACGCUGAGCCAAGCUUCGGCGCCUGCGCCGAUGUAGGUGUAGUGACUAGACGGCACCCACCUAAGGCAAACGCUAUGGUGAAGGCAUAGUCUAGGGAGAGGCGAAAGUCACACAAACCGG [C82U A111U A120U C169U U176A] | 0.00357 |
| GUGCCUUGCGCCGGGAAACCACGCAAGGGAUGGUGUCAAAUUCGGCGAAACCUAAGCGCCCGCCCGGGCGUAUGGCAACGCUGAGCCAAGCUUCGGCGCCUGCGCCGAUGUAGGUGUAGUGACUAGACGGCACCCACCUAAGGCAAACGCUAUGGUGAAGGCAUAGUCUAGGGAGCGGCGAAAGUCACACAAACCGG [C82U A111U A120U C169U U176C] | 0.00325 |
| GUGCCUUGCGCCGGGAAACCACGCAAGGGAUGGUGUCAAAUUCGGCGAAACCUAAGCGCCCGCCCGGGCGUAUGGCAACGCUGAGCCAAGCUUCGGCGCCUGCGCCGAUGUAGGUGUAGUGACUAGACGGCACCCACCUAAGGCAAACGCUAUGGUGAAGGCAUAGUCUAGGGAGGGGCGAAAGUCACACAAACCGG [C82U A111U A120U C169U U176G] | 0.0019 |
| GUGCCUUGCGCCGGGAAACCACGCAAGGGAUGGUGUCAAAUUCGGCGAAACCUAAGCGCCCGCCCGGGCGUAUGGCAACGCUGAGCCAAGCUUCGGCGCCUGCGCCGAUGUAGGUGUAGUGACUAGACGGCACCCACCUAAGGCAAACGCUAUGGUGAAGGCAUAGUCGAGGGAGGGGCGAAAGUCACACAAACCGG [C82U A111U A120U C169G U176G] | 0.00193 |
| GUGCCUUGCGCCGGGAAACCACGCAAGGGAUGGUGUCAAAUUCGGCGAAACCUAAGCGCCCGCCCGGGCGUAUGGCAACGCUGAGCCAAGCUUCGGCGCCUGCGCCGAUGUAGGUGUAGUGACUAGACGGCACCCACCUAAGGCAAACGCUAUGGUGAAGGCAUAGUCGAGGGAGAGGCGAAAGUCACACAAACCGG [C82U A111U A120U C169G U176A] | 0.00316 |
| GUGCCUUGCGCCGGGAAACCACGCAAGGGAUGGUGUCAAAUUCGGCGAAACCUAAGCGCCCGCCCGGGCGUAUGGCAACGCUGAGCCAAGCUUCGGCGCCUGCGCCGAUGUAGGUGUAGUGACUAGACGGCACCCACCUAAGGCAAACGCUAUGGUGAAGGCAUAGUCGAGGGAGCGGCGAAAGUCACACAAACCGG [C82U A111U A120U C169G U176C] | 0.00303 |
| GUGCCUUGCGCCGGGAAACCACGCAAGGGAUGGUGUCAAAUUCGGCGAAACCUAAGCGCCCGCCCGGGCGUAUGGCAACGCUGAGCCAAGCUUCGGCGCCUGCGCCGAUGUAGGUGUAGUGACUAGACGGCACCCACCUAAGGCAAACGCUAUGGUGAAGGCAUAGUCCAGGGAGAGGCGAAAGUCACACAAACCGG [C82U A111U A120U U176A] | 0.00769 |
